# Literature values in paper PMC12990809.
# How the values were obtained:
# Experiment in all cases: pulldown
# Details in all cases: 20 nM protein, 1.5 uM RNA pool; 20 mM HEPES pH 7.8, 70 mM KCl, 10 mM NaCl, 10% glycerol, 2 mM DTT, 0.1 ug/uL BSA; 30 min, 4 C (protocol of this paper; not …); cited from earlier work
# KHDRBS1 (Homo sapiens) = KHDRBS1 (Homo sapiens) (UniProt Q07666)
# [1] = target: T1, sup-12 (Caenorhabditis elegans) (UniProt O45189)
# T1 sequence: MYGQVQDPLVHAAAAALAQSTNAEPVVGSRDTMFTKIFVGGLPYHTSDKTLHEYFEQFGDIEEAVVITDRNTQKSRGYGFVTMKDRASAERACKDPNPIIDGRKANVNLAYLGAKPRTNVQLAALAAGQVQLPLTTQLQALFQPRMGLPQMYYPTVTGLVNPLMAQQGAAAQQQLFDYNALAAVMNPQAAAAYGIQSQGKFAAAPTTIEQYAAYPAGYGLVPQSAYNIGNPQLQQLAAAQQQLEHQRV
# PCBP1 (Homo sapiens) = PCBP1 (Homo sapiens) (UniProt Q15365)
# PCBP1 (Homo sapiens), sequence (Q15365 whole entry): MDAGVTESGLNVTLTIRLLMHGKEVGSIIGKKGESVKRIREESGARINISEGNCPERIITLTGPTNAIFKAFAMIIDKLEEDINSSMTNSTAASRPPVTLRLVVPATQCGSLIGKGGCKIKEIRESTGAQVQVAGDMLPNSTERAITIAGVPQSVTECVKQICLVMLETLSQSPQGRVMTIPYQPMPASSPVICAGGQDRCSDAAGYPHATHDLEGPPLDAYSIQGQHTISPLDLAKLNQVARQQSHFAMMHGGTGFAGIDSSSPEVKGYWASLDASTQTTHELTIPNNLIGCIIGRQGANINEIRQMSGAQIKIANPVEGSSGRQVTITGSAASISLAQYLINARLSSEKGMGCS
# [2] = target: T2, PF10_0068 (Plasmodium falciparum) (UniProt Q8IJX3)
# T2 sequence: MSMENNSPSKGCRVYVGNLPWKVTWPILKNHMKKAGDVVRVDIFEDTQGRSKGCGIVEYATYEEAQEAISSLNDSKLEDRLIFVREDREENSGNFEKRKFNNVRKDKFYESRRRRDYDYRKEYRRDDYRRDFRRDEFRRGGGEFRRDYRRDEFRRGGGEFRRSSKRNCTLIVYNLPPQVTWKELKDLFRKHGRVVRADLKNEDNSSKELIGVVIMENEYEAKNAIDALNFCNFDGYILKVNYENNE
# HNRNPLL (Homo sapiens) = target: T3, HNRNPLL (Homo sapiens) (UniProt Q8WVV9)
# T3 sequence: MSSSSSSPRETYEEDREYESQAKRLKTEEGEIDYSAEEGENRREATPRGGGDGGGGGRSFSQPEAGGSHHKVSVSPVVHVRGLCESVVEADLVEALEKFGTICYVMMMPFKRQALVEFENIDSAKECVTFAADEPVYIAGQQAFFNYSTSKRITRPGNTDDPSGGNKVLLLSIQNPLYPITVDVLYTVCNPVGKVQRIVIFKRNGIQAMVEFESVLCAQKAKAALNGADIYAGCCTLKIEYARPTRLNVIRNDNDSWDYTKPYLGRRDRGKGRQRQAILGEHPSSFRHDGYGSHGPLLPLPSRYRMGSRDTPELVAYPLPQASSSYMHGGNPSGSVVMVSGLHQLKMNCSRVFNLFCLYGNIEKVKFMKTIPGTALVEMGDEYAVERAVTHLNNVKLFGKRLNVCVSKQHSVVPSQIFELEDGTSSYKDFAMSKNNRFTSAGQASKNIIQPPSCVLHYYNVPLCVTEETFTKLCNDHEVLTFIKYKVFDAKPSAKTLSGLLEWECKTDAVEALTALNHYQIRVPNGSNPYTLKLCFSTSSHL
# [3] = target: T4, mec-8 (Caenorhabditis elegans) (UniProt G5ECJ4)
# T4 sequence: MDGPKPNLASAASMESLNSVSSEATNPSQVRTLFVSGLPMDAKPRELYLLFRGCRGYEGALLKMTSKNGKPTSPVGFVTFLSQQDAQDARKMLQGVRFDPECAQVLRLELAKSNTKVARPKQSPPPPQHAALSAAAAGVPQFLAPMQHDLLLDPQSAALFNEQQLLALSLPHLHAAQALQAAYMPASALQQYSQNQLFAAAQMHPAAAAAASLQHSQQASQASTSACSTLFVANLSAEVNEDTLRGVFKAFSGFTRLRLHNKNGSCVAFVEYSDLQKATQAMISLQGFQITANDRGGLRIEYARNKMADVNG
# [4] = target: T5, sup-26 (Caenorhabditis elegans) (UniProt D5MCR3)
# T5 sequence: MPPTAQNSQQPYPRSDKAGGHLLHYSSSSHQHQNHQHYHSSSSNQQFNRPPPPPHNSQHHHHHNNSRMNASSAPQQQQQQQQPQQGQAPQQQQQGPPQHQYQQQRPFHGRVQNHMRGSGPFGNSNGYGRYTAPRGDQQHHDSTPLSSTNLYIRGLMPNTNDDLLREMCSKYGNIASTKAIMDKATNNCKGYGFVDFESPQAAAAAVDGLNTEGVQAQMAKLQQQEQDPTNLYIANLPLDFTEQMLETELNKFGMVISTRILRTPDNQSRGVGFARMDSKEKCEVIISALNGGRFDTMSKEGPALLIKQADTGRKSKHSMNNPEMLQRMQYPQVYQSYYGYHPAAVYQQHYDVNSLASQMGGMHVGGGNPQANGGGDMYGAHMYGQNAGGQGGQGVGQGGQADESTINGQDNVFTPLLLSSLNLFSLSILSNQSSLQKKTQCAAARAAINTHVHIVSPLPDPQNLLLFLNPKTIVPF
# CELF6 (Homo sapiens) = CELF6 (Homo sapiens) (UniProt Q96J87)
# CELF6 (Homo sapiens), sequence (Q96J87 whole entry): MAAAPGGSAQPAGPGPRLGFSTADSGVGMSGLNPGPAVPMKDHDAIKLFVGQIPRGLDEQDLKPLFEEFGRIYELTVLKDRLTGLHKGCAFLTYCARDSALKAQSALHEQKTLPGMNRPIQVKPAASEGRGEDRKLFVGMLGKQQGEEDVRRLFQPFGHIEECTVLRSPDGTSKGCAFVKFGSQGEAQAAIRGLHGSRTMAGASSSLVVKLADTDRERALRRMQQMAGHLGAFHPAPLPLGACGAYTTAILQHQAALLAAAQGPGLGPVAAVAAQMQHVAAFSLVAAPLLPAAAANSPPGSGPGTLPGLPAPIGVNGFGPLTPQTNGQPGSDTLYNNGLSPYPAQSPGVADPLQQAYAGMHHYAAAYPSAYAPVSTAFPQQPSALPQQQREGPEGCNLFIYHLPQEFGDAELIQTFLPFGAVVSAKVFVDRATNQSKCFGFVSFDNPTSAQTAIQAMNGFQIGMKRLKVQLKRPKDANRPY
# KHDRBS2 (Homo sapiens) = target: T6, KHDRBS2 (Homo sapiens) (UniProt Q5VWX1)
# T6 sequence: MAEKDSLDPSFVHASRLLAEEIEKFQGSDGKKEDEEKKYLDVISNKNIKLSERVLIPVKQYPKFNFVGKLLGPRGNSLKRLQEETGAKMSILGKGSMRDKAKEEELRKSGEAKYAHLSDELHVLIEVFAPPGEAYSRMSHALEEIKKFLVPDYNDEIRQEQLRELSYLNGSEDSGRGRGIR
# [5] = target: T7, asd-1 (Caenorhabditis elegans) (UniProt A1BPT6)
# T7 sequence: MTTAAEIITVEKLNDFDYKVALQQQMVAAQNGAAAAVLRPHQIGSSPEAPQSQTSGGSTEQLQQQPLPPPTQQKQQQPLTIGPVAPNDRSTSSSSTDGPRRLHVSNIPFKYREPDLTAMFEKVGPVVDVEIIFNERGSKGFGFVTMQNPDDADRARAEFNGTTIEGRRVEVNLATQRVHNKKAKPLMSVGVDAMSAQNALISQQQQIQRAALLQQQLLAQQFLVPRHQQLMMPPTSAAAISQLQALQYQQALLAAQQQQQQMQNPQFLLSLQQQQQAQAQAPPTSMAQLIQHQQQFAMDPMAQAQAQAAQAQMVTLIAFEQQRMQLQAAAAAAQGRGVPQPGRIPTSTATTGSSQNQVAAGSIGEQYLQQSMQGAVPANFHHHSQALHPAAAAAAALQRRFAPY
# [6] = target: T8, MAL8P1.40 (Plasmodium falciparum) (UniProt Q8IB66)
# T8 sequence: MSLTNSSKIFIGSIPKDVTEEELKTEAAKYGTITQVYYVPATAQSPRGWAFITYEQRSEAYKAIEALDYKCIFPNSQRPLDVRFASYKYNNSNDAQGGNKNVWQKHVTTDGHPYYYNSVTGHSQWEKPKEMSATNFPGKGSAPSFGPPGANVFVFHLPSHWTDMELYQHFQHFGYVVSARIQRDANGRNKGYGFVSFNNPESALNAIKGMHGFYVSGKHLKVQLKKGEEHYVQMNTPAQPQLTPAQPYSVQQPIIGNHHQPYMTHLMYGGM
# DAZAP1 (Homo sapiens) = target: T9, DAZAP1 (Homo sapiens) (UniProt Q96EP5)
# T9 sequence: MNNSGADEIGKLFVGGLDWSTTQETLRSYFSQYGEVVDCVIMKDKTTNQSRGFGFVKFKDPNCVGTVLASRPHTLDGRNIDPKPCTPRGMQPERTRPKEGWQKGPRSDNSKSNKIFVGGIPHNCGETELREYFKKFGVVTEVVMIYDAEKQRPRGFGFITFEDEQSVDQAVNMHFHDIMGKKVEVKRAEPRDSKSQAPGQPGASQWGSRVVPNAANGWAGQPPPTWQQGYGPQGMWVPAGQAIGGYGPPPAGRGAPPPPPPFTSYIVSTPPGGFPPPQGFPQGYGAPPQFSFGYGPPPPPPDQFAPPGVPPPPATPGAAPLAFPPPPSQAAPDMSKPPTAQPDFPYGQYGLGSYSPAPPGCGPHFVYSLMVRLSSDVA
# A2BP1 (Homo sapiens) = target: T10, A2BP1 (Homo sapiens) (UniProt Q9NWB1)
# T10 sequence: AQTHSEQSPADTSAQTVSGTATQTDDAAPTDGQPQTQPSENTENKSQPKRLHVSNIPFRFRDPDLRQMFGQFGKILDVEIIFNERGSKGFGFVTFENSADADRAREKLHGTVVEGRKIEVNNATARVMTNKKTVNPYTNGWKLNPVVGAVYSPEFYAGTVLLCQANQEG
# [7] = target: T11, etr-1 (Caenorhabditis elegans) (UniProt A8DYS0)
# T11 sequence: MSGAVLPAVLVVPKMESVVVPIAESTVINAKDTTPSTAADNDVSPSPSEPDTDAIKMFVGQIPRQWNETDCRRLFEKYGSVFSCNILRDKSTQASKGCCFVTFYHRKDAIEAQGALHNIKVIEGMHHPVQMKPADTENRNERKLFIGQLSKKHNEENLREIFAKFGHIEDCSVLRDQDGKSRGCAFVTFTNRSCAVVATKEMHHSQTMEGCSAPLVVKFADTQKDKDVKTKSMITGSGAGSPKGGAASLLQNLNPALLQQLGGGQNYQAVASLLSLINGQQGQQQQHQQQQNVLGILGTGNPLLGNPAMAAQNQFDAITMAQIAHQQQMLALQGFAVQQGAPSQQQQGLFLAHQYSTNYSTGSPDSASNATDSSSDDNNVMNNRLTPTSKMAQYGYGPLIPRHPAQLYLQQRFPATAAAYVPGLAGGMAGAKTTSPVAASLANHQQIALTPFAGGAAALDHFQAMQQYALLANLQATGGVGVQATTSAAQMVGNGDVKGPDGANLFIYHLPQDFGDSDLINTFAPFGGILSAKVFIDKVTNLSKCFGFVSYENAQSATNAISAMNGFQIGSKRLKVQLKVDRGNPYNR
# PABPC5 (Homo sapiens) = PABPC5 (Homo sapiens) (UniProt Q96DU9)
# PABPC5 (Homo sapiens), sequence (Q96DU9 whole entry): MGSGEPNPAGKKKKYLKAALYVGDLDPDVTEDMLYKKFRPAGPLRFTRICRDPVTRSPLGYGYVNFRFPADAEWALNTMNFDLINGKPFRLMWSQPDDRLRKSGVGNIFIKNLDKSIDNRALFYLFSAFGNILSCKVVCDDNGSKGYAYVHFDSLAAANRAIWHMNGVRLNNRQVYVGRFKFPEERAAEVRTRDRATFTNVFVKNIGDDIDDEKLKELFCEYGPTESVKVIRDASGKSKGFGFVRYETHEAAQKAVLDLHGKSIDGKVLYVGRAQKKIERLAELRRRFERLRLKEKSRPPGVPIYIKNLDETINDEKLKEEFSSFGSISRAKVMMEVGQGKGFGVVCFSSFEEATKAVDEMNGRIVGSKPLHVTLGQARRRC
# IGF2BP3 (Homo sapiens) = IGF2BP3 (Homo sapiens) (UniProt O00425)
# IGF2BP3 (Homo sapiens), sequence (O00425 whole entry): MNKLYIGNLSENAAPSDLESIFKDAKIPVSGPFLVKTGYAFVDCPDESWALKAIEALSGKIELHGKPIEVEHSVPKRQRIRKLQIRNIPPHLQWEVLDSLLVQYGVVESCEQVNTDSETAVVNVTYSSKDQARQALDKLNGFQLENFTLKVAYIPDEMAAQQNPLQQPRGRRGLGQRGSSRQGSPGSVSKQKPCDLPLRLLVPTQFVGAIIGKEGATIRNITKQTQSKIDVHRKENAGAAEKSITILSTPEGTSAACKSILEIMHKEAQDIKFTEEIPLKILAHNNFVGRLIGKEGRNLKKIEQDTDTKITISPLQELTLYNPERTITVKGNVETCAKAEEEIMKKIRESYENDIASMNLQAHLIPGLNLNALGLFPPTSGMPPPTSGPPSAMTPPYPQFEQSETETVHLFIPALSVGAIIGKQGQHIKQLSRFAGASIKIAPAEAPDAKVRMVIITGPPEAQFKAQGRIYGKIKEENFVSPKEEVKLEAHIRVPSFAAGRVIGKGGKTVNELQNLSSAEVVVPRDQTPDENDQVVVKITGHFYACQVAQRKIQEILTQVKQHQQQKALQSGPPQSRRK
# RBM24 (Homo sapiens) = target: T12, RBM24 (Homo sapiens) (UniProt Q9BX46)
# T12 sequence: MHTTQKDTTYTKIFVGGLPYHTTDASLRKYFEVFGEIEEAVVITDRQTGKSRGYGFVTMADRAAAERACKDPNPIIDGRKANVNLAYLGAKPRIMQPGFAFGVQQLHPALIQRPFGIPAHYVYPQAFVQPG
# HNRNPCL1 (Homo sapiens) = HNRNPCL1 (Homo sapiens) (UniProt O60812)
# HNRNPCL1 (Homo sapiens), sequence (O60812 1-131): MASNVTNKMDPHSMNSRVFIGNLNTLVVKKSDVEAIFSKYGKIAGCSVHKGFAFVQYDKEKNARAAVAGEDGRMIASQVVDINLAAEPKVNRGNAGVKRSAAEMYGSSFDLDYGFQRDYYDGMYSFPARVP
# CELF5 (Homo sapiens) = CELF5 (Homo sapiens) (UniProt Q8N6W0)
# CELF5 (Homo sapiens), sequence (Q8N6W0 whole entry): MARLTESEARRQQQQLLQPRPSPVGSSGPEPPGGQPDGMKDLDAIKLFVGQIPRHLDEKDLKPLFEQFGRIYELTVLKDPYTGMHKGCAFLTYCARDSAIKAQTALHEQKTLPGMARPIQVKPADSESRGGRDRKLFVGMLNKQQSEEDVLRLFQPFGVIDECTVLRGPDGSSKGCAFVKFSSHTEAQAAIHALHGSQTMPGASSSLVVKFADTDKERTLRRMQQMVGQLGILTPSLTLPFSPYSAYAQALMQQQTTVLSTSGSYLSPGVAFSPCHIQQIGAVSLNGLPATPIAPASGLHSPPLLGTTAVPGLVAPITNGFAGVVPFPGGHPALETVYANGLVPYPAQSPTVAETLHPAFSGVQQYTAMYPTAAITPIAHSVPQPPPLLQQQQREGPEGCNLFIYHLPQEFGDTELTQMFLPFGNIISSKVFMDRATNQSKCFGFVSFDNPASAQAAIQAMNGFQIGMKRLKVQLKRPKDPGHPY
# [8] = target: T13, exc-7 (Caenorhabditis elegans) (UniProt Q20084)
# T13 sequence: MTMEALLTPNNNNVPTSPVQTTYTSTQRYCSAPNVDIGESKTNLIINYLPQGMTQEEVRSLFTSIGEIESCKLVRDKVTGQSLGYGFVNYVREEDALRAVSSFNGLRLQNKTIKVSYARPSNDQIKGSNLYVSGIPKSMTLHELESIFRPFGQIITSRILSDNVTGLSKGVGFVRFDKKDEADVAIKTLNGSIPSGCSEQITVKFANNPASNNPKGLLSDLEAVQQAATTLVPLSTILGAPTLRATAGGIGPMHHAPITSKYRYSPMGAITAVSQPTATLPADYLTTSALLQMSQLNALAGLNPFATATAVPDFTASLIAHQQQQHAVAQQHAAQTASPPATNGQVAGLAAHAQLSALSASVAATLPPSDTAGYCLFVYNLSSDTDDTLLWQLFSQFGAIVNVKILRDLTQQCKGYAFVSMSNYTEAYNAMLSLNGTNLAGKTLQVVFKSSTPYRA
# KHDRBS1 (Homo sapiens), sequence (Q07666 107-291): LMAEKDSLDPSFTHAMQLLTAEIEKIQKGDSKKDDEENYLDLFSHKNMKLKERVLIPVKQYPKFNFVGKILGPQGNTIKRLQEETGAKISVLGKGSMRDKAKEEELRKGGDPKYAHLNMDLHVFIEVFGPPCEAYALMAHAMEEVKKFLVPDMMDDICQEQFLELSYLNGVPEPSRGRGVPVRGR
substance,measurement,setting,value
AUAAAAG [RNAcompete motif RNCMPT00169],binding signal (z-score (mean of top ten 7-mers)),KHDRBS1 (Homo sapiens),9.86
UGUGUG [RNAcompete motif RNCMPT00416],binding signal (z-score (mean of top ten 7-mers)),[1],10.8
CCNANCC [RNAcompete motif RNCMPT00186],binding signal (z-score (mean of top ten 7-mers)),PCBP1 (Homo sapiens),6.42
GGAGGA [RNAcompete motif RNCMPT00199],binding signal (z-score (mean of top ten 7-mers)),[2],8.55
ACANACA [RNAcompete motif RNCMPT00178],binding signal (z-score (mean of top ten 7-mers)),HNRNPLL (Homo sapiens),9.56
AGCACA [RNAcompete motif RNCMPT00181],binding signal (z-score (mean of top ten 7-mers)),[3],8.36
UAUAUA [RNAcompete motif RNCMPT00182],binding signal (z-score (mean of top ten 7-mers)),[4],6.85
UGUGGUG [RNAcompete motif RNCMPT00187],binding signal (z-score (mean of top ten 7-mers)),CELF6 (Homo sapiens),7.27
AUAAA [RNAcompete motif RNCMPT00185],binding signal (z-score (mean of top ten 7-mers)),KHDRBS2 (Homo sapiens),8.2
UGCAUGA [RNAcompete motif RNCMPT00180],binding signal (z-score (mean of top ten 7-mers)),[5],20.3
AUACAUG [RNAcompete motif RNCMPT00197],binding signal (z-score (mean of top ten 7-mers)),[6],14.8
UAGGUAG [RNAcompete motif RNCMPT00013],binding signal (z-score (mean of top ten 7-mers)),DAZAP1 (Homo sapiens),7.92
UGCAUG [RNAcompete motif RNCMPT00168],binding signal (z-score (mean of top ten 7-mers)),A2BP1 (Homo sapiens),23.3
GUGUGUU [RNAcompete motif RNCMPT00183],binding signal (z-score (mean of top ten 7-mers)),[7],8.98
AGAAANU [RNAcompete motif RNCMPT00171],binding signal (z-score (mean of top ten 7-mers)),PABPC5 (Homo sapiens),7.11
AACAA [RNAcompete motif RNCMPT00172],binding signal (z-score (mean of top ten 7-mers)),IGF2BP3 (Homo sapiens),6.02
GUGUGA [RNAcompete motif RNCMPT00184],binding signal (z-score (mean of top ten 7-mers)),RBM24 (Homo sapiens),10.6
UUUUUU [RNAcompete motif RNCMPT00167],binding signal (z-score (mean of top ten 7-mers)),HNRNPCL1 (Homo sapiens),18.4
GUGUGUG [RNAcompete motif RNCMPT00166],binding signal (z-score (mean of top ten 7-mers)),CELF5 (Homo sapiens),9.48
UUAAGUU [RNAcompete motif RNCMPT00014],binding signal (z-score (mean of top ten 7-mers)),[8],13.7
